For one substance, tethers with RFC along the path of fill-in together with PCNA (of 14 tethers) results are on record in article PMC12363810.

For this assay, the target named is proliferating cell nuclear antigen (PCNA), Saccharomyces cerevisiae (Saccharomyces cerevisiae) (UniProt P15873). The assay can be described thus: single-molecule correlative force and fluorescence microscopy.
UniProt P15873, sequence (P15873 whole entry): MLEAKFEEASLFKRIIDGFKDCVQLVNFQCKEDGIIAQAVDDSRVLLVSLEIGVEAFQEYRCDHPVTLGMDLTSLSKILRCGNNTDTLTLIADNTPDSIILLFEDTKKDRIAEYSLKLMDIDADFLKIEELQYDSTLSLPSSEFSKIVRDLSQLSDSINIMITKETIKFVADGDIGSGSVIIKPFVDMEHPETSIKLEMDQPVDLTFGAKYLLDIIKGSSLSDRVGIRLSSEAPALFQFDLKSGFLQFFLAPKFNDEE

Regarding “replication factor C (RFC), Saccharomyces cerevisiae, full-length (from UniProt P38630 1-861) (complex)”, the tethers with RFC along the path of fill-in together with PCNA (of 14 tethers) worked out at 9.
